Test [1] deals with CPSF6 (313-327) peptide, Q16630-2. The experiment in a line: FFS. Conditions: parent: est. 1.0, read off a plot.
Test [2] deals with CypA, GFP fusion (UniProt P62937). Briefly: FFS. Conditions: parent: est. 1.0, read off a plot.
For test [3], the target named is GFP-Nup214 (1210-2090), FG-repeat domain (UniProt P35658). The experiment in a line: FFS. As to conditions: n = 15 scans; parent: est. 1.0; read off a plot.
The target of test [4] is GFP-Nup42 (full-length) (UniProt O15504). The experiment in a line: FFS. As to conditions: n = 10 scans; parent: est. 1.0; read off a plot.
Test [5] deals with GFP-Nup98 (1-499), FG-repeat domain (UniProt P52948). Briefly: FFS. As to conditions: n = 10 scans; parent: est. 1.0; read off a plot.
Test [6] addresses GFP-Pom121 (266-1249), transmembrane domain truncated (UniProt Q96HA1). Briefly: FFS. As to conditions: n = 10 scans; parent: est. 1.0; read off a plot.
In test [7] the target is Nup153 (1407-1423) peptide (UniProt P49790). Briefly: FFS. Conditions: parent: est. 1.0, read off a plot.
Nup153 (1407-1423) peptide, sequence (P49790 whole entry, looked up, tested part not stated): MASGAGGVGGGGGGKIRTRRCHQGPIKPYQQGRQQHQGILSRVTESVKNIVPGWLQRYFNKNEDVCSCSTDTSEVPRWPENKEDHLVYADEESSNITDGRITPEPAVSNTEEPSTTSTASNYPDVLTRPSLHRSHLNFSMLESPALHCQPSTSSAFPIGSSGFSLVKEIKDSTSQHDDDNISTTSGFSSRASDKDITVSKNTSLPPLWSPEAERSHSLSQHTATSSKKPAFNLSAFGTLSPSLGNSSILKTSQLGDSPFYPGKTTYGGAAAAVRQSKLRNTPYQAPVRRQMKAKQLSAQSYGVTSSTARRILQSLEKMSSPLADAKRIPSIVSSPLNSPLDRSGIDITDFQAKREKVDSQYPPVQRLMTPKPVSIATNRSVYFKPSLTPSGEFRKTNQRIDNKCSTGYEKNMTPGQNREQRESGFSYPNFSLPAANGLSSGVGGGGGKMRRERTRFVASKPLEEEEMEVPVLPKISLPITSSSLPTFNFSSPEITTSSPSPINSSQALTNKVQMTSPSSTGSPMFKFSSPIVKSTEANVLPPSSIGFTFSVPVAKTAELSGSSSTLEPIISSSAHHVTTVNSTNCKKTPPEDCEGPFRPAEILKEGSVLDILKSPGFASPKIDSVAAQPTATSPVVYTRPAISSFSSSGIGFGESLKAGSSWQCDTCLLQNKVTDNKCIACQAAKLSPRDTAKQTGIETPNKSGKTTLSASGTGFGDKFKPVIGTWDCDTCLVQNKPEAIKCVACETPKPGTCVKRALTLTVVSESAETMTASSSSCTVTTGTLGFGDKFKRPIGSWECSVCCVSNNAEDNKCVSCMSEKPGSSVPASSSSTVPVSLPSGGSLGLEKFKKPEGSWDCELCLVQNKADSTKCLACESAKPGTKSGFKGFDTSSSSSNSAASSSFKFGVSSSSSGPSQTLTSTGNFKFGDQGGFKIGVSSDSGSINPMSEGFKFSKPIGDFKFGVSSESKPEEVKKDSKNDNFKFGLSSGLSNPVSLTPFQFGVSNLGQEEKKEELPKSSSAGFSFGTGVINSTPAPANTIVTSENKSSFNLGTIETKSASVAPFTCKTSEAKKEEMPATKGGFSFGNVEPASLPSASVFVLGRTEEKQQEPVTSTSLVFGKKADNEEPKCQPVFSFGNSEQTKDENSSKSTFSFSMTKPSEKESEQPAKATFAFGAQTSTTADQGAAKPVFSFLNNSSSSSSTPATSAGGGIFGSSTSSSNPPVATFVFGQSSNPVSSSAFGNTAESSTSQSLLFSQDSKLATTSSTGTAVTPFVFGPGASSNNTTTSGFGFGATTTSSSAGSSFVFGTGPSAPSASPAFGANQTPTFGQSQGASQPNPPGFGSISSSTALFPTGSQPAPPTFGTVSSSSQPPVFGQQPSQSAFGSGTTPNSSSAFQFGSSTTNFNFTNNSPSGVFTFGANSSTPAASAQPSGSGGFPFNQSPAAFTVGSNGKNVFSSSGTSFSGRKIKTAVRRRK
Test [8] addresses HIV-1 capsid (CA) CA (Human immunodeficiency virus 1) (UniProt O93182). As to conditions: cited from earlier work.
In test [9] the target is GFP-Nup62 (full-length) (UniProt P37198). The experiment in a line: FFS. Conditions: n = 10 scans; parent: est. 1.0; read off a plot.
The target in test [10] is GFP-Nup58 (full-length) (UniProt Q9BVL2). The experiment in a line: FFS. Conditions: n = 15 scans; parent: est. 1.0; read off a plot.
The target in test [11] is Nup98 fragment 118–345 (13 FGs). The experiment in a line: FFS. Conditions: n = 10 scans; parent: est. 1.1; read off a plot.
The target in test [12] is Nup98 fragment 1–119 (13 FGs). The experiment in a line: FFS. Conditions: n = 10 scans; parent: est. 1.1; read off a plot.
Test [13] has as its target Nup98 fragment 346–499 (13 FGs). Briefly: FFS. As to conditions: n = 10 scans; parent: est. 2.4; read off a plot.
Test [14] addresses unstructured FG domain of Nup98 (residues 1-499), His-tagged, as phase-separated condensates (human) (UniProt P52948).
Test [15] deals with HIV-1 capsid (CA) unassembled CA (Human immunodeficiency virus 1) (UniProt O93182). As to conditions: cited from earlier work.
For test [16], the target named is HIV-1 capsid (CA) hexamer CA (Human immunodeficiency virus 1) (UniProt O93182). Conditions: cited from earlier work.

The values below come from publication PMC10881392.

The term Kd denotes the concentration at which binding is half-saturated.

CPSF6 (313-327) peptide, Q16630-2, sequence (Q16630 whole entry, looked up, the tested form may be a part): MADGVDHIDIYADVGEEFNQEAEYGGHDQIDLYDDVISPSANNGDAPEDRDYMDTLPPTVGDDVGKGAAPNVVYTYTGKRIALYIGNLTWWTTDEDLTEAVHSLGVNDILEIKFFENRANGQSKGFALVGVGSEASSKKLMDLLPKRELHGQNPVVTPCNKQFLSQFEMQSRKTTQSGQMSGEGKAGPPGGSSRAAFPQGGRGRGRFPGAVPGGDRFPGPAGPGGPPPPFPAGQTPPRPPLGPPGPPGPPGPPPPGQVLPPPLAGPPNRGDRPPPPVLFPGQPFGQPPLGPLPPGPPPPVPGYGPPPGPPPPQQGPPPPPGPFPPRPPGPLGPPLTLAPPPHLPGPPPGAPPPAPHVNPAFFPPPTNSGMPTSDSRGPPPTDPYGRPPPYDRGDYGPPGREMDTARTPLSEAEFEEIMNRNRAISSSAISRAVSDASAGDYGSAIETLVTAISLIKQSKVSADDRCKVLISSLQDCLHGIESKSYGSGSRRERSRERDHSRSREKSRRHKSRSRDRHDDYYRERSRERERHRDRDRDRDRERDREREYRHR

Take “capsid-like particles (CLPs; CA A204C cross-linked assemblies labelled with Alexa Fluor 568), wild-type N74D”: the ratio to parent was 0 in [1] (n = 8 scans); 1.3 in [2] (n = 8 scans); 1.8 in test [3]; 1.8 in test [4]; 1.7 in [5]; 1.9 in test [6]. Besides, the ratio to parent in test [7] (n = 10 scans) worked out at 1.4.
In the case of “HIV-1 capsid (CA) CA (from UniProt O93182)”, the Kd in [8] is 40 µM.
Consider “capsid-like particles (CLPs; CA A204C cross-linked assemblies labelled with Alexa Fluor 568), wild-type A77V”, for which the ratio to parent in test [1] (n = 10 scans) came to 0.15; in [2] (n = 10 scans), 1.6; in test [3] it was 1.4; in test [4], 1.2; in test [9] it was 1.7; in [5] it was 1.4. In addition, the ratio to parent in [6] was determined as 1.7; in test [7] (n = 10 scans), 3.9.
Take “capsid-like particles (CLPs; CA A204C cross-linked assemblies labelled with Alexa Fluor 568), wild-type N57D”: the ratio to parent in test [1] (n = 10 scans) was 0.03; in [2] (n = 10 scans) it was 1.4; in test [3], 0.2; in [4] it was 0.35; in [10] it was -0.1; in [9], -0.1. Moreover, the ratio to parent in test [5] was 0.35; in [6], -0.02; in test [7] (n = 9 scans) it was 0.18. The results for the response in test [11], in test [12] and in test [13] were 0.22, 0.19 and 0.2, respectively.
“capsid-like particles (CLPs; CA A204C cross-linked assemblies labelled with Alexa Fluor 568), wild-type (complex)”: in test [14], the median penetration depth of unlabelled CLPs into Nup98 condensates, cryo-ET was found to be 65 nm.
For the substance CPSF6 313-327 (from UniProt Q16630), the dissociation constant Kd in test [15] was 700 µM; in test [16], 50 µM.
